Drawing on patent CN111690062A (UNIV FUDAN, dated 2020), this text covers Kd for 1 molecule.

As a reminder, the Kd is the constant that tells how readily two partners part at equilibrium.

For this assay, the target named is T1, Plasmodium falciparum PfRh5 protein (recombinant, expressed in Sf9 insect cells) (Plasmodium falciparum (恶性疟原虫), UniProt Q8IFM5 25-526, limits assumed).
T1 construct: In the BLI assay the protein was amine-coupled to AR2G sensors; also called 恶性疟PfRh5蛋白; PfRh5蛋白
T1 sequence (looked up): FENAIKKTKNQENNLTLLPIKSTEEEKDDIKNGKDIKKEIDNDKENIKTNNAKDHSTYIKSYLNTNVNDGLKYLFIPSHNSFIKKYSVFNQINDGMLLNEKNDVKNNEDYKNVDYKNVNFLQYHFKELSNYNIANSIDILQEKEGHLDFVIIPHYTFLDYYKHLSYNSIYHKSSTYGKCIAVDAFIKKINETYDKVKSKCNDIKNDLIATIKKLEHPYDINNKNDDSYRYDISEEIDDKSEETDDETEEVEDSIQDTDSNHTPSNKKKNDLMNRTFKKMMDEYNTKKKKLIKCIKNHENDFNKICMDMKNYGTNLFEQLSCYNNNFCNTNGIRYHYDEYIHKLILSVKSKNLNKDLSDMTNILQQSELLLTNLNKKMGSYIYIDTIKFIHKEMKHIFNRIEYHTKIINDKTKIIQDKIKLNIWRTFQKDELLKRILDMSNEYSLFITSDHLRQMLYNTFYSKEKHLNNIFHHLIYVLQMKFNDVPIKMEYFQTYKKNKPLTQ
Briefly: BLI (Octet-Red96) at 37°C; PfRh5 amine-coupled to AR2G sensor; G9 as analyte at 1.2-100 nM in 3-fold dilutions; 1:1 fit. In general terms: Biolayer interferometry detects binding as a change in optical thickness at a sensor tip.

B1: G9 antigen-binding fragment (Fab), fully human, against Plasmodium falciparum PfRh5 (Fab, V domains shown)
VH: EVQLVQSGGGLVQPGGSLRLSCAASGFTFDDYAMHWVRQAPGKGLEWVAVIWYDGSNKYYADSVKGRFTISRDNSKNTLYLQMNSLRAEDTAVYYCAREHIDDPAMVPSPPAFDIWGQGTMVTVSS
VL: EIVLTQSPATLSLSPGERATLSCRASQSVSSYLAWYQQKPGQAPRLLIYDASNRATGIPARFSGSGSGTDFTLTISSLEPEDFATYYCQQSYSTPRTFGQGTKLEIK
notes: also called 抗体G9; 克隆G9
Consider B1, for which the dissociation constant (Kd) came out at 4.9 nM.
